Measurements published in patent US20200325224A1 (Hoffmann-La Roche, published 2020).

Legend:
[1] = molecular target: T1, cynomolgus CD3e 5-26-Fc(knob)-Avi/Fc(hole) (cynomolgus, UniProt P0DOX5 223-449 = IgG part); experiment: ELISA, biotinylated target on streptavidin plate
T1 construct: Residues 5-26 of mature CD3e fused to Fc(knob), co-expressed with Fc(hole); biotinylated for the ELISA; also called cyCD3e 5-26 huFc
Method: (§1) Binding of anti-CD3 antibodies to human and cynomolgus CD3 proteins and peptides was determined by ELISA. Biotinylated target proteins and peptides were immobilized on a 384-well streptavidin-coated microplate (MaxiSorb; MicroCoat, DE, Cat. No. 11974998/MC1099) in 25 μl/well, in DPBS (PAN Biotech GmbH, DE, Cat. No. P0436500) by incubation over night at 4° C. […] Peptides used were produced with biotin attached via linkers either to the N- or the C-terminus of the peptide. For target binding ELISA N- and C-terminal biotinylated peptides were mixed in a 1:1 ratio for immobilization on microplates (Table 8) and used separately (Table 8). […] Antibodies were detected with peroxidase-linked, species-specific anti-rabbit IgG, (F(ab′)₂ fragment, from donkey, GE, Cat. No. NA 9340) diluted 1:5000 in 1×PBS (w/0.5% BSA, w/0.05% Tween 20) for 1 h at room temperature. Detection antibodies were removed by four washing steps with washing buffer and signal was developed by addition of TMB substrate (TMB solution, Roche). Absorbance was read out after fixed time intervals at […].

[2] = molecular target: T2, human CD3e 5-26-Fc(knob)-Avi/Fc(hole) (human, UniProt P0DOX5 223-449 = IgG part); experiment: ELISA, biotinylated target on streptavidin plate
T2 construct: Residues 5-26 of mature CD3e fused to Fc(knob), co-expressed with Fc(hole); biotinylated for the ELISA; also called huCD3e 5-26- huFc
Method: as §1

[3] = molecular target: T3, human CD3e-1-26-Fc(knob)-Avi/Fc(hole) (human, UniProt P0DOX5 223-449 = IgG part); experiment: ELISA, biotinylated target on streptavidin plate
T3 construct: First 26 amino acids of mature CD3e fused to Fc(knob), co-expressed with Fc(hole); biotinylated for the ELISA; also called huCD3e-1-26 huFc
Method: as §1

[4] = molecular target: T4, human CD3e amino acids 1-22 peptide (1:1 mixture of N- and C-terminally biotinylated variants) (human, biotin attached via linker to the N- or the C-terminus (1:1 mixture)); experiment: ELISA, biotinylated target on streptavidin plate
T4 construct: Linker not described; also called huCD3e- 1-22 peptide
T4 sequence (peptide, as listed by the source mutant): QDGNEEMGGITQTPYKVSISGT
Method: as §1

[5] = molecular target: T5, cynomolgus CD3e amino acids 1-22 peptide (1:1 mixture of N- and C-terminally biotinylated variants) (cynomolgus, biotin attached via linker to the N- or the C-terminus (1:1 mixture)); experiment: ELISA, biotinylated target on streptavidin plate
T5 construct: Linker not described; also called cyCD3e- 1-22 peptide; cynomolgus CD3 peptide-1-22
T5 peptide: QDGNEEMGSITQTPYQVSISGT
Method: as §1

[6] = molecular target: T6, cynomolgus CD3e stalk-Fc(knob)-Avi/CD3d-stalk-Fc(hole) (cynomolgus); experiment: SPR (BIACORE T100), antibody captured by anti-rabbit IgG Fc, antigen in solution, 25 C, 1:1 Langmuir
T6 construct: Heterodimer; biotinylated for the ELISA; used in solution in SPR; also called cyCD3ed stalk huFc; cynomolgusCD3e(stalk)Fc-Knob-CD3d(stalk)FcHole
T6 sequence (chain, as listed by the source limits assumed): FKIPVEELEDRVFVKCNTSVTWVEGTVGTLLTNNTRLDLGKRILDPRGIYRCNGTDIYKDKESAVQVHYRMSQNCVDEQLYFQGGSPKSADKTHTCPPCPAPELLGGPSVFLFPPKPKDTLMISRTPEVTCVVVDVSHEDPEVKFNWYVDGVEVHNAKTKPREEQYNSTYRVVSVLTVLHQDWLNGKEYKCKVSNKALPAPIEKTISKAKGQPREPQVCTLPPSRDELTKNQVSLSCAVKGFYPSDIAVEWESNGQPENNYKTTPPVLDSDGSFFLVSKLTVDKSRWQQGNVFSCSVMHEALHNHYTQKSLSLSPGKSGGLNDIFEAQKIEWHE
Method: Around 2000 resonance units (RU) of the capturing system (10 μg/ml goat anti rabbit IgG Fc Fragment specific; Order Code: 111-005-046; Jackson Immuno Research) were coupled on a CM4 chip (GE Healthcare, BR-1005-34) at pH 5.0 by using an amine coupling kit supplied by the GE Healthcare. Running buffer for Immobilization was HBS-N pH 7.4 (10 mM HEPES, 150 mM NaCl, pH 7.4, GE Healthcare, BR-1006-70). For the followed kinetic assay running and dilution buffer was HBS-P pH 7.4 (10 mM HEPES, 150 mM NaCl, 0.05% Surfactant P20, pH 7.4, GE Healthcare, BR-1006-71). The flow cell was set to 25° C.—and the sample block set to 12° C.—and primed with running buffer twice. […] Association was measured by injection of human CD3e(stalk)Fc-Knob-CD3d(stalk)FcHole or cynomolgus CD3e(stalk)Fc-Knob-CD3d(stalk)FcHole in various concentrations in solution for 180 sec at a flow of 30 μl/min starting with 1350 nM, followed by one 1:1.5 dilution and further in 1:3 dilutions. The dissociation phase was monitored for up to 300 sec and triggered by switching from the sample solution to running buffer. The surface was regenerated by washing with two consecutive injections of a Glycine pH 1.7 solution for 60 sec at a flow rate of 10 μl/min. Bulk refractive index differences were corrected by subtracting the response obtained from a goat anti rabbit IgG Fc surface. Blank injections are also subtracted (=double referencing). For calculation of KD and other kinetic parameters the Langmuir 1:1 model was used.

binding result [1]: no binding | binding result [2]: no binding | binding result [3]: no binding | binding result [4]: no binding | binding result [5]: no binding | Kd [6]: 620 nM | koff [6]: 0.013 s⁻¹ | kon [6]: 21000 M⁻¹ s⁻¹
B1: antibody clone 645 (antibody, V domains shown)
VH: QSLEESGGDLVKPGASLTLTCLASGFSFSGTYWICWVRQAPGKGLEWIGCISTDSGSTYYASWAKGRFTISKTSSTTVTLQMTSLTAADTATNFCARSAYASEGYALWGPGTLVTVSS
VL: AIVMTQTPSSKSVPVGDTVTINCQASESVYNNNYLSWYQQKPGQPPKLLIYYASTLASGVSSRFKGSGSGTQFTLTISDVVCDDAATYYCTGWKSITTDGMGAFGGGTEVVVKG
notes: Rabbit monoclonal; Recombinantly expressed with rabbit gamma and kappa constant regions in HEK293 (captured by anti-rabbit IgG Fc in SPR); also called Mab.645
